Measured values as given in the supplement of paper PMC10065799, “High-throughput profiling of sequence recognition by tyrosine kinases and SH2 domains using bacterial peptide display” (eLife, 2023).

Experiments:
[1] = target: c-Src SH2; test: SH2 binding enrichment of the phosphorylated peptide, bacterial display (enrichment ratio); higher = better substrate or ligand; peptides without Tyr show the background
[2] = target: Grb2 SH2 (UniProt P62993); test: as above
[3] = target: SHP2-C SH2; test: as above
[4] = test system: AncSZ; test: phosphorylation enrichment, bacterial display (enrichment ratio); higher = better substrate or ligand; peptides without Tyr show the background
[5] = target: FGFR1 (UniProt P11362); test: as above
[6] = test system: c-Src; test: as above
[7] = target: Fes (UniProt P07332); test: as above
[8] = target: Jak2 (UniProt O60674); test: as above
[9] = target: EPHB2 (UniProt P29323); test: as above
[10] = test system: c-Abl (mouse); test: as above
[11] = target: Fyn (UniProt P06241); test: as above
[12] = test system: Fer (mouse); test: as above
[13] = target: Hck (UniProt P08631); test: as above
[14] = target: MERTK (UniProt Q12866); test: as above
[15] = target: FGFR3 (UniProt P22607); test: as above
[16] = target: EPHB1 (UniProt P54762); test: as above
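Wherever SH2 binding enrichment of the phosphorylated peptide, bacterial display is given: peptide library displayed on the E. coli surface as eCPX fusions, selected cells deep-sequenced, score is each peptide's frequency after selection divided by its frequency in the input.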
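Wherever phosphorylation enrichment, bacterial display is given: 11-residue human phosphosite peptides and single-mutation variants displayed on the E. coli surface, counted by deep sequencing, each peptide's frequency after selection divided by its frequency in the unselected input library; frequency after pTyr selection over input frequency; kinase dosed for 20-30% of maximal phosphorylation in three min.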

Chain of EPHB2 (P29323 whole entry, looked up): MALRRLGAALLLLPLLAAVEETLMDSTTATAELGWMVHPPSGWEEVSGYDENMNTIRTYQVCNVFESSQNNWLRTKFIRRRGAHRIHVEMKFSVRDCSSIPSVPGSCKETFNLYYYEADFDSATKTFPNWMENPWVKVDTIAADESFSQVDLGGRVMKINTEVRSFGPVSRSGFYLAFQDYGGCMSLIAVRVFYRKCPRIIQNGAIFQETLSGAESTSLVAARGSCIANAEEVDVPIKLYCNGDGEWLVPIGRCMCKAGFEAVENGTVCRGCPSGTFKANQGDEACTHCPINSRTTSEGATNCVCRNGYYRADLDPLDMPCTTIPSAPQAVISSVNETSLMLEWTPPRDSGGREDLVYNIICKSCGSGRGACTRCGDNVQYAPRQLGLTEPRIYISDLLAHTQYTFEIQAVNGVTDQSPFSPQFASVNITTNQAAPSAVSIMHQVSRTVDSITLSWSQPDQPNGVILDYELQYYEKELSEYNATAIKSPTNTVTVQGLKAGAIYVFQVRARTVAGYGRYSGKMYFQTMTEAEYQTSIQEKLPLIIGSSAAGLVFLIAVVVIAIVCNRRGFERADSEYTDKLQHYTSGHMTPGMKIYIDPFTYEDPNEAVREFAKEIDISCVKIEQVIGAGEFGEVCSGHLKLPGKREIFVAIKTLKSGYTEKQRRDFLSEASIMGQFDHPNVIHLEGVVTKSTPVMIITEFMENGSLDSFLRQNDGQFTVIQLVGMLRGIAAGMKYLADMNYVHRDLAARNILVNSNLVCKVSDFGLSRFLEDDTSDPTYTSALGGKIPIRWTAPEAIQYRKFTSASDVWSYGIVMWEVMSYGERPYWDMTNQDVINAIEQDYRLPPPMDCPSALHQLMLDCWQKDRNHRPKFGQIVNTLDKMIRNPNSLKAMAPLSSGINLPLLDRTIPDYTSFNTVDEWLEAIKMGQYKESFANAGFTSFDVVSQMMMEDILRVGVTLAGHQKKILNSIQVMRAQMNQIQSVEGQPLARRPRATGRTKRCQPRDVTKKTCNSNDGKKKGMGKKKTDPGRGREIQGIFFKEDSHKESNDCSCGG
Chain of Fyn (P06241 whole entry, looked up): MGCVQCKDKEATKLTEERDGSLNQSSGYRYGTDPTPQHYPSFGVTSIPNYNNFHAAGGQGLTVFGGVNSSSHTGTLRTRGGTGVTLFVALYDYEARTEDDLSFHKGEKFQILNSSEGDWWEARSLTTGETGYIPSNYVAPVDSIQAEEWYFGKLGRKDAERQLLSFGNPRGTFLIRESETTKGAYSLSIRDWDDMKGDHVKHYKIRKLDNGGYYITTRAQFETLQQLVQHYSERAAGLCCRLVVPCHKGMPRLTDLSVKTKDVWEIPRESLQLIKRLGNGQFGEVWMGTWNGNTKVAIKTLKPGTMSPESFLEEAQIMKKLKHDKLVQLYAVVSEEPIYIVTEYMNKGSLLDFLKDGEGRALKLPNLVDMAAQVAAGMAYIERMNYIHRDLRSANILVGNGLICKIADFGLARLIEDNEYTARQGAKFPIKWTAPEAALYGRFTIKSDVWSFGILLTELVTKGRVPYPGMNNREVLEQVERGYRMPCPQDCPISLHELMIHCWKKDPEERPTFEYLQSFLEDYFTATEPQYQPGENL
Chain of EPHB1 (P54762 whole entry, looked up, the tested form may be a part): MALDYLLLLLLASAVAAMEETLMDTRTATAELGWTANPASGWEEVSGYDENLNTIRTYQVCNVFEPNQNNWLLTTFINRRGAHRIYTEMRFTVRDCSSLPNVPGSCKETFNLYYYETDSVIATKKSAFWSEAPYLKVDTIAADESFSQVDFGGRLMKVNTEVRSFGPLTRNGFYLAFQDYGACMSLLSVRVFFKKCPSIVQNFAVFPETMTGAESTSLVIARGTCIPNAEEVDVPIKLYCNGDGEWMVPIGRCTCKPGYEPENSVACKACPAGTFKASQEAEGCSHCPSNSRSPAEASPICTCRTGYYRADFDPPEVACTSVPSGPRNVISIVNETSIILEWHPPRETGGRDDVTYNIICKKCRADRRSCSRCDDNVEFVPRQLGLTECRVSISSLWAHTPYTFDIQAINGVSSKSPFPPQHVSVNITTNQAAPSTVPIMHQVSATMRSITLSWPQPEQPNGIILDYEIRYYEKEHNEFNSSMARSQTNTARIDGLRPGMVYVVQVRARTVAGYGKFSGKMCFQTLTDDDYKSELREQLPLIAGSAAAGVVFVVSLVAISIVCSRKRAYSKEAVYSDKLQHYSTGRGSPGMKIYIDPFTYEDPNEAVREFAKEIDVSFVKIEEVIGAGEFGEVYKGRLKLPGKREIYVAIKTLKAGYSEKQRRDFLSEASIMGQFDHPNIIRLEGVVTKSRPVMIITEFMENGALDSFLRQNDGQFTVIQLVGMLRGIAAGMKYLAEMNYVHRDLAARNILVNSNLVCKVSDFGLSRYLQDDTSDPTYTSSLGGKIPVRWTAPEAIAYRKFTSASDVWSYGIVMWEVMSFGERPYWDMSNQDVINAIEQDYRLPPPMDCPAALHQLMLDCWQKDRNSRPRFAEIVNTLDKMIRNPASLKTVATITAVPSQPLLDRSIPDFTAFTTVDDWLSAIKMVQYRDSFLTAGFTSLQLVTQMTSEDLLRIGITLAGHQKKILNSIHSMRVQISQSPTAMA
Chain of FGFR1 (P11362 whole entry, looked up): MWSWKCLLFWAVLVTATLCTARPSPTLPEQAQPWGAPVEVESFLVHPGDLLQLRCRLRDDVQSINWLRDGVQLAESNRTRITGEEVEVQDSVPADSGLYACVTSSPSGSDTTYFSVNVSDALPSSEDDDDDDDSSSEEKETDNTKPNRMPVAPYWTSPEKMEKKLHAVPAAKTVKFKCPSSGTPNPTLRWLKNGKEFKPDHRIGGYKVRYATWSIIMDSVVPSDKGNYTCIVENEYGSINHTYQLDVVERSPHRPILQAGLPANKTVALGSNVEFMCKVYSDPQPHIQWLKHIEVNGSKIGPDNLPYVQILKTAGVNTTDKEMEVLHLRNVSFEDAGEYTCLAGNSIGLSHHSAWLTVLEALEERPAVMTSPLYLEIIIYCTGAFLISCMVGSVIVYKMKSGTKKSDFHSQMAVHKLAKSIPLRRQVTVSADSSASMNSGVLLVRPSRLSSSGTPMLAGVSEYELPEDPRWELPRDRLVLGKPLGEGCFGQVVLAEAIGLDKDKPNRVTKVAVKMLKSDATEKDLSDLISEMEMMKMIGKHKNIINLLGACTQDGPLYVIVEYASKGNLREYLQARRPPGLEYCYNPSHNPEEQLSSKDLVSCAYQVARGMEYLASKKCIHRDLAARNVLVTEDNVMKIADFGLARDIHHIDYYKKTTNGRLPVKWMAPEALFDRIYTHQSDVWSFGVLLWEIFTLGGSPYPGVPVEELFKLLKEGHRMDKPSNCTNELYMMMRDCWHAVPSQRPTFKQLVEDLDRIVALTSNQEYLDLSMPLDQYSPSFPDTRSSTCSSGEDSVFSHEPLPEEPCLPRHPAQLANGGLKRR
Chain of Jak2 (O60674 whole entry, looked up): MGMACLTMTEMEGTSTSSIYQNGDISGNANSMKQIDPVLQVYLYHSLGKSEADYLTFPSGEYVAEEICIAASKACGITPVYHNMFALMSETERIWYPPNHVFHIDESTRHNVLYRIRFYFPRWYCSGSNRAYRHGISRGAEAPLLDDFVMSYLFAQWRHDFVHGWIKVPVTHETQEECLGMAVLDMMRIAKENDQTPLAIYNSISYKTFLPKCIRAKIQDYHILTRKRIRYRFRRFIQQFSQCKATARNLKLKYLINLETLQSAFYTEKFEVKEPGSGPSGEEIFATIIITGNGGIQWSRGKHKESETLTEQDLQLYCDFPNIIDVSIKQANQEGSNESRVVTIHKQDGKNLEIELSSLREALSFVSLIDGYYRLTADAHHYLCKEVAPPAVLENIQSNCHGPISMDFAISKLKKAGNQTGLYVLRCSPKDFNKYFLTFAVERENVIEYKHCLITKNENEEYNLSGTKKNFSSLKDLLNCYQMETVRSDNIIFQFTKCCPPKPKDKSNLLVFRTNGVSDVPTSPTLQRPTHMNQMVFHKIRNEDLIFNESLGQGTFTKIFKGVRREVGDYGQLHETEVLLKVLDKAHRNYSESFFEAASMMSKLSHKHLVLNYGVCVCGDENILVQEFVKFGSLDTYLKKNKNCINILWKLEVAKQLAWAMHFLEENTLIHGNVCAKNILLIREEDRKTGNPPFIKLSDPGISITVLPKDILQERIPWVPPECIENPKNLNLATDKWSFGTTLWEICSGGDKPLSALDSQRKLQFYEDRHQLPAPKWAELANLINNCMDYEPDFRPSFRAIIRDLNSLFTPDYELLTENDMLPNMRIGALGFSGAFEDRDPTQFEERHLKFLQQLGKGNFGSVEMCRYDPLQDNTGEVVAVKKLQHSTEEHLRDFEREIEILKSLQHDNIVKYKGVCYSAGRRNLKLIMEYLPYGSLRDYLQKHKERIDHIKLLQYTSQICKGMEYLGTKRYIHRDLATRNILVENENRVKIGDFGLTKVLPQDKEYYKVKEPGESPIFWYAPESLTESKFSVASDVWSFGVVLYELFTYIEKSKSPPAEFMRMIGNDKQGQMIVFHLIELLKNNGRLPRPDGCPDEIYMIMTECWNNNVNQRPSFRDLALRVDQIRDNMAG
Chain of Hck (P08631 whole entry, looked up): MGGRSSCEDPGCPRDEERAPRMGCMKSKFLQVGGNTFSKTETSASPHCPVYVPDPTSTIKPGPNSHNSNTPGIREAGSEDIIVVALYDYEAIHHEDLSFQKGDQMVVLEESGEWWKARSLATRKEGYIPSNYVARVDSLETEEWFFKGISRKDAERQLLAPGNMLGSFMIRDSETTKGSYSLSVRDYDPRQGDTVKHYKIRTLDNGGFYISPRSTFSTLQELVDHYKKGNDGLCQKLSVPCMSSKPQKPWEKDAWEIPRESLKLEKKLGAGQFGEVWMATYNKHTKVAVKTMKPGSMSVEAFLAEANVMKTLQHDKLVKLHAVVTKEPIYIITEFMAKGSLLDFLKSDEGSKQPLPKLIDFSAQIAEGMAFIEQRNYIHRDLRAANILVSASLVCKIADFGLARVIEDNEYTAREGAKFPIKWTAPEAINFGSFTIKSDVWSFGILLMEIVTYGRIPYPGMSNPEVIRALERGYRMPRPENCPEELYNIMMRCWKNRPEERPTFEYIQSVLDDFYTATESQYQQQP

SH2 binding enrichment [1]	SH2 binding enrichment [2]	SH2 binding enrichment [3]	Sequence	phosphorylation enrichment [4]	phosphorylation enrichment [5]	phosphorylation enrichment [6]	phosphorylation enrichment [7]	phosphorylation enrichment [8]	phosphorylation enrichment [9]	phosphorylation enrichment [10]	phosphorylation enrichment [11]	phosphorylation enrichment [12]	phosphorylation enrichment [13]	phosphorylation enrichment [14]	phosphorylation enrichment [15]	phosphorylation enrichment [16]
1.61	1.73	1.86	FQRITYHNWRH [PDE6B_Y556_R552Q_YF]	0.55	0.447	0.417	0.762	0.791	0.511	0.487	0.466	0.452	0.478	0.41	0.634	0.449
0.543	1.01	0.726	FRDMDYRSFPR [RBM10_Y41_YF]	0.694	0.473	0.4	0.864	0.58	0.492	0.485	0.424	0.346	0.477	0.446	0.482	0.435
0.448	0.942	0.653	FSCLPYRRLAY [SLC52A2_Y305_G306R]	0.95	0.656	0.766	0.671	0.837	0.547	1.22	0.691	0.5	0.663	0.621	0.758	0.613
0.528	0.992	0.8	FSGKAYADEEQ [CRIM1_Y826_R831Q]	1.12	0.459	0.41	1.14	1.31	0.675	1.2	0.522	0.529	0.565	0.552	0.81	0.581
0.643	0.831	0.953	FSIDHYLGKEM [G6PD_Y202_R198S_YF]	1.06	0.579	0.464	1.2	1.16	0.61	0.845	0.545	0.511	0.537	0.421	0.749	0.669
0.864	0.964	0.843	FSQNIYIQNRN [PKP2_Y631_YF]	0.619	0.54	0.45	0.62	0.517	0.425	0.459	0.447	0.418	0.589	0.383	0.473	0.396
0.535	0.957	0.829	FSSLGYPPPEG [ZSWIM4_Y87_YF]	0.752	0.437	0.421	0.906	0.807	0.481	0.593	0.443	0.396	0.472	0.401	0.704	0.418
0.654	1.04	0.971	FTFDPYSEEEP [IL2RB_Y387_D391E_YF]	1.22	0.602	0.907	1.49	0.917	0.576	0.733	0.59	0.549	0.584	0.469	0.811	0.874
0.476	0.793	0.567	FTGDIYSSSNL [LZTR1_Y141_N143S_YF]	0.748	0.494	4.35	0.652	0.588	1.03	2.35	5.8	2.31	5.66	1.7	0.588	0.782
0.827	1.11	0.847	FVHDNYVIWRT [CPS1_Y1450_R1453W]	1.28	2.79	0.721	1.16	1.11	7.37	1.14	0.577	1.26	1.26	1.45	1.8	6.57
0.384	0.756	0.605	FVPAAYVKKLD [SPTAN1_Y1020]	0.791	0.505	0.49	0.89	0.731	0.472	0.651	0.43	0.348	0.445	0.356	0.767	0.43
7.73	1	0.941	FVTSMYNEILM [TRPV1_Y310]	1.16	0.641	0.693	1.38	1.39	0.596	0.832	0.647	3.38	0.957	0.756	0.932	0.765
0.645	0.854	0.625	GADDSYFTVRS [ZAP70_Y492_A495V_YF]	1.59	3.54	0.846	1	1.73	0.498	0.665	0.604	0.484	0.968	0.468	2.62	0.558
2.46	1.18	0.91	GAMGHYVLAER [HFE_Y342]	0.643	0.38	0.437	0.659	0.511	0.403	0.505	0.41	0.453	0.44	0.452	0.446	0.387
0.779	1.01	1.05	GCRSKYVGLWG [KCNQ1_Y184]	0.61	0.432	0.452	0.708	0.605	0.456	0.511	0.38	0.408	0.363	0.463	0.506	0.41
0.779	0.993	0.624	GDEEDYEEIPG [EGFR_opt_E_2015]	1.36	0.62	0.598	1.38	1.36	0.59	0.898	0.596	0.645	0.527	0.498	0.823	0.893
0.469	0.763	0.561	GDFFRYLAEVA [YWHAG_Y133_YF]	1.07	0.683	0.447	1.18	0.964	0.51	0.78	0.432	0.486	0.477	0.429	0.664	0.503
